Experiment: soluble on expression in E. coli; label from the status in PepcDB or PDB records
In the case of “MMSISQLLGCISKQVDGQYIAQYEELTLRSVFQPIYKKDLSIIGLEALVRISTADGSMIRPDLFFQSPSISEHVQLNVERLSRLIHIKNFGQSRYRNKKLFLNVLPRAAEMLAKDLSYSHLLKQVICEADLCREQIVMELVELSAGDESFLYKATKELSDGGFKLAIDDYGINASTIERVKCVRPDIIKMDRSLLLKYEDGDFSALIEALALAKELSSKTVIEGIETEHQLNLMKKLGFDMYQGYLLAMPQTLEMYEEAKTA”, the “soluble on expression in E. coli” value was “not soluble”. With “MMSTLALVSLAIFGIAVVCAAPKPATVPVANEEDYLAALYGFEAPGSQFKGAPLQSKRHISPSYDVEIDAGNMRNLLDIGKRSAPMASDYGNQFQMYNRLIDAGKKKRSPAISPAYQFENAFGLSEALERAGRR” the “soluble on expression in E. coli” value was “not soluble”. With “MMTESHGYLSNNLPVKIINDIIYATQLVEDLVLGKIKIVDFLKSYNNFYCWLGFDELPQSEKIKFLSYLNILSIHKEIQDETVNRVYTD” the “soluble on expression in E. coli” value was “not soluble”. In the case of “MNACVSVVCYKSKTLSNGENPLMLQVSKGGKRKYQSLGISINPKYWDFTRNKPKPNCPNKEYIQKIILDKQRELQQRMLELNSEQKEYTTTTLLNNENTKFELKTVSMFYKELIEQYTREDKCGNRLIYKGSFNSLKVFTNGKLDIPFNEIDIAWLNKYEKWLRSKGNRETTISLLFRTLRSAYNKAIKAKCARKSDYPFDDYKINKFDTTTQKRAIAKTDVLKFTTEVQPIGKQQYMELSKDIFVFSYLCGGINFTDIANLTNENIQNGRLHYIRQKTKKPIKIGIPQEAMQIIEKYSKESKG”, the “soluble on expression in E. coli” value was “not soluble”. For “MNATINDDDIDDVKKALDHATQAAHKAAAELTAKLRSDFVEYGNGGTAGQVLIHIYGPGLIYGFSAFPVQIRLEIPNQPVPFNKVHITEVTAYVIDENNRTYWTRVWNSSTFRQGGYIADTLDLVTVMKAPDPLVYQIRDAIVTGQISRELYDKIWNTSTTHFEIRVIVKGYQEAWKTDSSVSNQSSCPSDGHWYEDACWVHDKDIDFTLKAETTTAWGHVTGTNDVATIDGGMLGSLPIKFLQSLDLSGKWVLYQNKYAGALSDFIIITAASPVHVLNSTAMYKFLITPNPGYFQPANPKISDEYRFVTLRVIEGGRMELADTTTGHIGDLTEPTFFGLTAHYTDAPGTLDYHALGLVYAYVERDDGVKIPIWLAAEPMISVLSNTYTVMKDQDVKNLIDLYKKKDREKINATTKAMINSLQEKIDEAEQLLAKAKGMNNENAIEYAQGAIDEYKAAINDLQKAAQQDDYQMFLNYLNAAKKHEMAGDYYVNAARKALNGDLEQAKIDAEKAKEYSNLAKEYEPG”, the “soluble on expression in E. coli” value was “soluble”. For “MNATPEKADDLIVVGKIFSVHGVRGEVKVYSFTDPIENLLDYPRWTLRHEGKVKQVELVSGRGSQKGLVVKLKGLDDRDEARLLSGYEICIPRSLLPNLAADEYYWYQLVGLKVINQDEQLFGKVDHLLETGANDVMVVKPCAGSLDDRERLLPYTEQCVLAIDLEAGVMRVEWDADFLEHHHHHH”, the “soluble on expression in E. coli” value was “soluble”. For “MNAVHFGAGNIGRGFIGEILAKNGFHITFVDVNETIIQALKERKSYTIELADASHQQINVENVTGLNNMTEPEKVVEAIAEADLVTTAIGPNILPRIAELIAQGIDARAEANCQKPLDIIACENMIGGSTFLAEEVAKYLKNPAYAEQWIGFPDAAVDRIVPLQKHEDPLFVQVEPFCEWVIDDTNRKAKEIQLEGVHYVAD”, the “soluble on expression in E. coli” value was “not soluble”. For “MNDDLIMRKKPEQIEMEFQDSGESALVKSTLLSSLQNSEWEIAVRKEVKKFLEKARDDVSAKEVFDAVKDMARREIPQEAKKKLYDQVLEFVTTTNKK”, the “soluble on expression in E. coli” value was “not soluble”. With “MNDELKNKSGKVKVMYVRSDDDSDKRTHNPRTGKGGGRPAKSRTDGGRRPARDERNNQSRDRKHETSPWRTVSRAPGDETPEKVDHGGISGKSFIDPEVLRRQRAEETRVYGENACQALFQSRPDAIVRAWFIQSVTPRFKEALRWMAANRKAYHVVDEAELAKASGTEHHGGVCFLIKKRNGTTVKQWVKQAADQDCVLALEDVANPHNLGGMMRSCAHFGVKGVVVQDAALLESGAAIRTAEGGAEHVQPITGESIVDVLDDFRQAGYTVVTTSSDRGQALFSTTLPEKMVLVLGREYDYLPEAAREPDDLCVKINGTGNVESLNVSVATGVLLAEWWRQNKA” the “soluble on expression in E. coli” value was “not soluble”.
